Changes are numbered by the printed parent chain.
B1: AX211 IgG2 (antibody, V domains shown)
VH: QVQLLESGGGLVQPGGSLRLSCKASGYTFSRQGFTWVRQAPGKGLEWIGWIDPGNGGTRYNEKFKGKATISRDNSKNTLYLQMNSLRAEDTAVYYCARYRVGYSLDYWGQGTLVTVSS
VL: EIVLTQSPATLSLSPGERATITCRASQYVGSYLNWYQQKPGQAPRLLIYDASNRATGIPARFSGSGSGTDFTLTISSLEPEDFAVYYCQVWDSSPPVVFGGGTKVEIK
B2: AX212 IgG2 (antibody, V domains shown)
VH: B1 VH with R31S, Q32Y, G33S, T35S, W50Y, N55S, R59K, E62Q, K65Q, Y99Q
VL: B1 VL
B3: AX213 IgG2 (antibody, V domains shown)
VH: B1 VH with Q1E, Q32Y, F34I, T35N, W50R, Y99A, R100N, V101D, L105F
VL: EIVLTQSPATLSLSPGERATITCRASQYVGSYLNWYQQKPGQAPRLLIYDASNRATGIPARFSGSGSGTDFTLTISSLEPEDFAVYYCQVWDSSPPVVFGGGTKVEIKR
B4: AX210 IgG2 (antibody, V domains shown)
VH: B1 VH with R31S, Q32Y, G33S, F34I, T35Y, E62Q, K65Q, G66S, Y99A
VL: B1 VL
B5: AX114 IgG2 (antibody, V domains shown)
VH: EVQLLESGGGLVQPGGSLRLSCKASGYTFSSYGMYWVRQAPGKGLEWIGWIDPGSGGTKYNEKFKGKATISRDNSKNTLYLQMNSLRAEDTAVYYCARERYGYYFDYWGQGTLVTVSS
VL: B1 VL with S31T, V98A

Biological target: human PCSK9 (proprotein convertase subtilisin-kexin type 9), wild type (UniProt Q8NBP7 31-692)
Assay: TR-FRET PCSK9-LDLR interaction inhibition

Chain of human PCSK9 (proprotein convertase subtilisin-kexin type 9), wild type (Q8NBP7 31-692): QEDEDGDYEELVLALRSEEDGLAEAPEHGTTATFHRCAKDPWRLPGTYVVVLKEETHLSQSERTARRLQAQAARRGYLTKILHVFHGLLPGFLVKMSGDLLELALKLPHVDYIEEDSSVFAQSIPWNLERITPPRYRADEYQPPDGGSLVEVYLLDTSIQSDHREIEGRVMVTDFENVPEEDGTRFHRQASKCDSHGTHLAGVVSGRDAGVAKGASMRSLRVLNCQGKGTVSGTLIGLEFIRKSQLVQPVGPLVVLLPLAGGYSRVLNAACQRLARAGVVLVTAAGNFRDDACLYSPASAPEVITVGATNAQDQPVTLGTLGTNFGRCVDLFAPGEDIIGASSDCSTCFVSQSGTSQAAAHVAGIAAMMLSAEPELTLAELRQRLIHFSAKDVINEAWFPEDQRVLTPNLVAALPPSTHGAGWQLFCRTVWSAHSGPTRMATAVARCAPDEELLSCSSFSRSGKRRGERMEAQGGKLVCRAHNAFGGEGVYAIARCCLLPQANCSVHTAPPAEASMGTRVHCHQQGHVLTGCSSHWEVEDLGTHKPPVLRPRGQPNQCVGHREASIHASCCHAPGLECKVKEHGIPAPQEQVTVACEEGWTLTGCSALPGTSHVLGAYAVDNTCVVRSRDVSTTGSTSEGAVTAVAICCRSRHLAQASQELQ

IC50 [nM] | Binder
4.8 | B1
3.9 | B2
4.9 | B3
4.9 | B4
5.9 | B5
